Assay results published in patent publication US20070161078A1.

Experiments:
[1] = molecular target: MBP.NS1 H1N1 (RSEV) (influenza A H1N1) (UniProt A3DRP6); test: G assay titration
[2] = molecular target: MBP.NS1 H3N2 (RSKV) (influenza A H3N2) (UniProt Q67253); test: G assay titration
[3] = molecular target: MBP.NS1 H3N2 (RSKV) (influenza A H3N2) (UniProt Q67253); test: titration, direct binding sandwich assay
[4] = molecular target: Peptide 1958 H5N1A (EPEV) (influenza A H5N1); test: G assay titration
[5] = molecular target: MBP.NS1 H5N1A (EPEV) (influenza A H5N1) (UniProt O56264); test: G assay titration
[6] = molecular target: MBP.NS1 H5N1B (ESEV) (influenza A H5N1) (UniProt Q6DP28); test: G assay titration
[7] = molecular target: MBP.NS1 H1N1 (RSEV) (influenza A H1N1) (UniProt A3DRP6); test: direct binding assay titration
[8] = molecular target: MBP.NS1 H3N2 (RSKV) (influenza A H3N2) (UniProt Q67253); test: direct binding assay titration
[9] = molecular target: MBP.NS1 H5N1A (EPEV) (influenza A H5N1) (UniProt O56264); test: direct binding assay titration
[10] = molecular target: MBP.NS1 H5N1B (ESEV) (influenza A H5N1) (UniProt Q6DP28); test: direct binding assay titration
[11] = molecular target: MBP.NS1 H1N1 (RSEV) (influenza A H1N1) (UniProt A3DRP6); test: titration, direct binding sandwich assay
[12] = molecular target: MBP.NS1 H5N1A (EPEV) (influenza A H5N1) (UniProt O56264); test: titration, direct binding sandwich assay
[13] = molecular target: MBP.NS1 H5N1B (ESEV) (influenza A H5N1) (UniProt Q6DP28); test: titration, direct binding sandwich assay

| Substance | EC50 [1] [µg/mL] | EC50 [2] [µg/mL] | EC50 [4] [µg/mL] | other results |
| --- | --- | --- | --- | --- |
| INADL d8 (from UniProt Q8NI35 1431-1525) | 3.2 | 0.9 | – | EC50 [3]: 0.869 µg/mL |
| MAST2 d1 (from UniProt Q6P0Q8 1098-1197) | 2 | > 50 | 5.5 | – |
| Magi3 d1 (from UniProt Q5TCQ9 18-106) | 3.1 | 3 | – | – |
| NeDLG d1,2 (from UniProt Q92796 124-316) | 1.1 | > 50 | – | – |
| Outer Membrane Protein (from UniProt P08515 1-218) | 1.2 | 13 | – | EC50 [5]: 27 µg/mL; EC50 [6]: 0.2 µg/mL; EC50 [7]: 6 µg/mL; EC50 [8]: 3 µg/mL; EC50 [9]: 12.5 µg/mL; EC50 [10]: 0.8 µg/mL; EC50 [11]: 1.25 µg/mL; EC50 [12]: 12.6 µg/mL; EC50 [13]: 0.18 µg/mL |
| PSD95 d2 (from UniProt P31016 160-246) | – | – | 3.8 | – |
